Data on 16 molecules can be found in patent US20140370037A1 (published 2014).

Experiment [1] concerns the target T1, human DLL3 antigen (human, UniProt Q9NYJ7 27-492).
T1 chain: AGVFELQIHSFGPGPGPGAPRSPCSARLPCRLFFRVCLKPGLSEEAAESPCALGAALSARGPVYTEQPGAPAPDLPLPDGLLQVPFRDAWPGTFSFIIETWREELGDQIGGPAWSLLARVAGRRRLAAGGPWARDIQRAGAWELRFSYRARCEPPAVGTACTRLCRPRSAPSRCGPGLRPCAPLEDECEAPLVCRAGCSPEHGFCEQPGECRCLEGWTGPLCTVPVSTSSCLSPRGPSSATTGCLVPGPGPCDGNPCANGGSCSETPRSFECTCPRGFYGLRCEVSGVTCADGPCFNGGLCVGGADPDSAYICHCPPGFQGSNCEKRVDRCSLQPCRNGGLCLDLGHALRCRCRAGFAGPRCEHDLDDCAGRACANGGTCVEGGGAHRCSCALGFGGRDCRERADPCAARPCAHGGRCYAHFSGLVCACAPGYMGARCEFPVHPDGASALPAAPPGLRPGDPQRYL
Kind of experiment: SPR. (In general: SPR reads the build-up and loss of mass on a sensor chip optically.)

Experiment [2] addresses T1, human DLL3 antigen. Put plainly: Biacore SPR.
The target in experiment [3] is T1, human DLL3 antigen. Put plainly: ForteBio.
The target in experiment [4] is T1, human DLL3 antigen. Put plainly: ForteBio.

B1: SC16.34 (antibody, V domains shown)
VH: QIQLVQSGPELKRPGETVKISCKASGYTFTNYGMNWVKQAPGKGLKWMGWINTYTGDPTYADDFKGRFAFSLETSASTAYLQINNLKNEDTATYFCARIGGNSPSDYWGQGTSLTVSS
VL: SIVMTQTPKFLLVSAGDRVTITCKASQSVSNDVAWYQQKPGQSPKLLIYYASNRYSGVPDRFTGSGYGTDFTFTISTVQAEDLAVYFCQQDYSSPWTFGGGTKLEIK
Turning to B1, the figures for the equilibrium dissociation constant (Kd) in experiment [1] and in experiment [2] were 0.6 nM and 0.2 nM, respectively.

B2: SC16.56 (antibody, V domains shown)
VH: QIQLVQSGPELKKPGETVKISCKASGYTFTNYGMNWVKQAPGKGLKWMAWINTYTGEPTYADDFKGRFAFSLETSASTASLQIINLKNEDTATYFCARIGDSSPSDYWGQGTTLTVSS
VL: SIVMTQTPKFLLVSAGDRVTITCKASQSVSNDVVWYQQKPGQSPKLLIYYASNRYTGVPDRFAGSGYGTDFSFTISTVQAEDLAVYFCQQDYTSPWTFGGGTKLEIR
As for B2, the Kd – broadly, the free concentration of one partner at which half of the binding sites on the other are occupied at equilibrium, for simple one-to-one binding – in experiment [1] was 0.5 nM; in experiment [2], 1 nM.

B3: SC16.13 (antibody, V domains shown)
VH: QVTLKESGPGILQPSQTLSLTCSFSGFSLSTSGMGVGWIRQPSGKGLEWLAHIWWDDVKRYNPALKSRLTISKDTSSSQVFLKIASVDTADTATYYCARIVSFDNDVVSAMDYWGQGTSVTVSS
VL: QIVLTQSPALVSASPGEKVTMTCSASSSVSYMYWYQQKPRSSPKPWIYLTSNLASGVPARFSGSGSGTSYSLTISSMEAEDAATYYCQQWRSNPFTFGSGTKLEIK
For the molecule B3, the equilibrium dissociation constant (Kd) in experiment [1] came out at 0.3 nM; in experiment [2], 2 nM.

B4: SC16.65 (antibody, V domains shown)
VH: QVTLKESGPGILQPSQTLSLTCSFSGFSLSTSGMGVGWIRQPSGKGLEWLALIWWDDVKRYNPALKSRLTISKDASSSQVFLKIASVDTADTATYYCARIASYDYDVVYAMDYWGQGTSVSVSS
VL: QIVLTQSPALMSASPGEKVTMTCSVTSSVSYMYWYQQKPRSSPKPWIYLTSNLASGVPARFSGSGSGTSYSLTISSVEAEDAATYYCQQWRNNPFTFGSGTKVEIK
As for B4, in experiment [2], the dissociation constant (Kd) came to 0.9 nM.

B5: hSC16.34 (antibody, V domains shown)
VH: QVQLVQSGAEVKKPGASVKVSCKASGYTFTNYGMNWVRQAPGQRLEWMGWINTYTGDPTYADDFKGRVTITRDTSASTAYMELSSLRSEDTAVYYCARIGGNSPSDYWGQGTTVTVSS
VL: DIQMTQSPSSLSASVGDRVTITCKASQSVSNDVAWYQQKPGKVPKLLIYYASNRYSGVPSRFSGSGSGTDFTLTISSLQPEDVATYFCQQDYSSPWTFGGGTKVEIK
With B5, in experiment [1], binding was put at a Kd of 0.9 nM.

B6: hSC16.56 (antibody, V domains shown)
VH: QVQLVQSGAEVKKPGASVKVSCKASGYTFTNYGMNWVRQAPGQGLEWMGWINTYTGEPTYADDFKGRVTMTTDTSTSTAYMELRSLRSDDTAVYYCARIGDSSPSDYWGQGTLVTVSS
VL: EIVMTQSPATLSVSPGERATLSCKASQSVSNDVVWYQQKPGQAPRLLIYYASNRYTGIPARFSGSGSGTEFTLTISSLQSEDFAVYYCQQDYTSPWTFGQGTKLEIKR
In turn, B6 gave an equilibrium dissociation constant (Kd) in experiment [1] of 0.5 nM.

B7: SC16.25 (antibody, V domains shown)
VH: QVTLKESGPGILQPSQTLSLTCSFSGFSLSTSGMGVGWIRQPSGEGLEWLTDIWWDDNKYYNPSLKSRLTISKDTSSNQVFLNITSVDTADTATYYCARRVNYYYDPYYAMDYWGQGTSVTVSS
VL: QIVLTQSPAIMSASPGEKVTMTCSASSSVSYMHWYQQKSGTSPKRWIYDSSKLASGVPARFSGSGSGTSYSLTISSMEAEDAATYYCQQWSSNPLTFGAGTKLELK
On to B7, for which the dissociation constant Kd in experiment [1] is less than 0.2 nM; in experiment [2], 0.2 nM.

B8: hSC16.25 (antibody, V domains shown)
VL: EIVLTQSPDFQSVTPKEKVTITCSASSSVSYMHWYQQKPDQSPKLLIKDSSKLASGVPSRFSGSGSGTDFTLTINSLEAEDAATYYCQQWSSNPLTFGQGTKLEIK
V domain: QITLKESGPTLVKPTQTLTLTCTFSGFSLSTSGMGVGWIRQPPGKALEWLTDIWWDDNKYYNPSLKSRLTITKDTSKNQVVLTMTNMDPVDTATYYCARRVNYYYDPYYAMDYWGQGTTLVTVS
For the molecule B8, in experiment [1], the Kd was less than 0.2 nM.

B9: hSC16.15 (antibody, V domains shown)
VH: QVQLVQSGAEVKKPGASVKVSCKASGYTFTRYWIHWIRQAPGQGLEWMGYINPTTVYTEFNQNFKDRVTMTRDTSTSTVYMELSSLRSEDTAVYYCARGGSNFFDYWGQGTTVTVSS
VL: AIQLTQSPSSLSASVGDRVTITCRASENIYYNLAWYQQKPGKAPKLLIYTANSLEDGVPSRFSGSGSGTDFTLTISSLQPEDFATYFCKQAYDVPPTFGGGTKLEIK
For the molecule B9, the Kd in experiment [1] was 0.2 nM.

B10: SC16.10 (antibody, V domains shown)
VH: QVTLKESGPGILQSSQTLSLTCSFSGFSLSTSGMGVGWIRQPSGKGLEWLAHIWWDDVKRYNPVLKSRLTISKDTSSSQVFLKIASVDTADTATYYCARLVDDLYYFDYWGQGTTLTVSS
VL: QIVLTQSPAIMSASLGERVTMTCTASSSVSSSYLHWYQQKPGSSPKLWIYSTSNLASGVPTRFSGSGSGTSYSLTISSMEAEDAATYYCHQYHRSPFTFGSGTKLEIK
Turning to B10, the Kd in experiment [3] came to 4 nM.

B11: SC16.15 (antibody, V domains shown)
VH: QVQLQQSGAELAKPGASVKMSCKASGYTFTRYWIHWIKQRPGQGLEWIGYINPTTVYTEFNQNFKDKATLTADKSSTTASMQLSSLTSEDSAVYYCARGGSNFFDYWGQGTTLTVSS
VL: DIQMTQSPASLAASVGETVAITCRASENIYYNLAWYQQKQGKSPQLLIYTANSLEDGVPSRFSGSGSGTQYSLKINSMQPEDSATYFCKQAYDVPPTFGGGTKLEIK
In experiment [2], B11 had a dissociation constant (Kd) of 0.5 nM. This lies in the sub-nanomolar range.

B12: SC16.4 (antibody, V domains shown)
VH: QIQLVQSGPELKKPGETVKISCKASGYTFTDYSMHWVKQAPGKGLKWMGWINTETGEPGYADDFKGRFAFSLETSASTAYLQINNLKNEDTATYFCARYDGYAMDYWGQGTSVTVSS
VL: DIQMTQTTSSLSASLGDRVTISCRASQDISNYLNWYQQKPDGTVKLLIYYTSRLHSGVPSRFSGSGSGTDYSLTISNLELEDIATYFCQQGDMLPWTFGGGTKLEIK
B12 yielded an equilibrium dissociation constant (Kd) in experiment [3] of 0.5 nM.

B13: SC16.39 (antibody, V domains shown)
VH: EVKLEESGGGLVQFGGSMKLSCAASGFTFSDAWMDWVRQSPEKGLEWVAEIRNKANNHATYYPESVKGRFTISRDDSKSRVYLQMNNLRAEDTGIYYCTGYSSFAYWGQGTLVTVSA
VL: DIQMTQTTSSLSASLGDRVTISCRASQDVINYLNWYQQKPDGTVKLLIYYTSRLHSGVPSRFSGSGSRTDYSLTISNLEPEDIATYYCQQYSERPYTFGGGTKLEIK
Consider B13, for which binding in experiment [4] was put at a Kd of 1 nM. This lies in the single-digit nanomolar range.

B14: hSC16.13 (antibody, V domains shown)
VH: QITLKESGPTLVKPTQTLTLTCTFSGFSLSTSGMGVGWIRQPPGKALEWLAHIWWDDVKRYSPSLKSRLTITKDTSKNQVVLTMTNMDPVDTATYYCARIVSFDNDVVSAMDYWGQGTLVTVSS
VL: DIQMTQSPSSLSASVGDRVTITCSASSSVSYMYWYQQKPGKAPKLLIYLTSNLASGVPSRFSGSGSGTDFTLTISSLQPEDFATYYCQQWRSNPFTFGQGTKLEIKR
As for B14, in experiment [1], the equilibrium dissociation constant (Kd) amounted to 0.5 nM.

B15: SC16.8 (antibody, V domains shown)
VH: QAQLQQSGAELVRPGTSVKVSCKASGYAFTNYLIEWVKQRPGQGLEWIGVINPGTGGTNYNENFKGKATLTADKSSSTAYMQLSSLTSDDSAVYFCARSPYDYHEGAMDYWGQGTSVTVSS
VL: EIQMTQSPSSMSASLGDRITITCQATQDIVKNLNWYQQKPGKPPSFLIYYAIELAEGVPSRFSGSGSGSDYSLTISNLESEDFADYYCLQFYEFPFTFGAGTKLELK
In experiment [3], B15 yielded a Kd of 0.5 nM.

B16: SC16.67 (antibody, V domains shown)
VH: EVQLVETGGGLVQPKGSLKLSCAVSAFTFTTYAMNWVRQAPGKGLEWVARIRNKSNNYATYYADSVKDRFTISRDDSQSMLYLQMNNLKIEDTAMYYCVFYYDYVYWGQGTLVTVSA
VL: QAVVTQESALTTSPGETVTLTCRSSTGAVTTSNYANWIQEKPDHLFTGLIGGTNNRAPGVPARFSGSLIGDKAALTITGAQTEDEAIYFCGLWYSNHLVFGGGTKLTVL
As for B16, the dissociation constant (Kd) in experiment [3] was determined as 0.5 nM.
